Biological target: the molecule itself
Assay: AUC

B1: recombinant ovine PrP (25–233) (natural protein)
chain: not shown
stoichiometry N: 2

— article PMC3000319 (PLoS ONE, 2010)
